This is an account of results in publication PMC9445664, “A transcription factor TaMYB5 modulates leaf rolling in wheat”.

Series [1] has as its target T1, TaMYB5 (GST-TaMYB5) (Triticum aestivum, UniProt A0A3B6ELG7 1-265). Put plainly: EMSA; unlabeled N1 competes; LightShift Chemiluminescent EMSA Kit (Thermo); buffer, salt, pH and temperature not stated. The following applies: protein: recombinant; tags: N-terminal GST; label: biotin (labeled probe); blunt. (Mobility shift assays separate free from complexed probe on a gel.)

Series [2] addresses T1, TaMYB5 (GST-TaMYB5). Put plainly: competition; EMSA; unlabeled mutant probe against biotin-labeled N1; LightShift Chemiluminescent EMSA Kit (Thermo); buffer, salt, pH and temperature not stated. The following applies: protein: recombinant; tags: N-terminal GST; blunt.

T1 sequence (A0A3B6ELG7 entry or part of it): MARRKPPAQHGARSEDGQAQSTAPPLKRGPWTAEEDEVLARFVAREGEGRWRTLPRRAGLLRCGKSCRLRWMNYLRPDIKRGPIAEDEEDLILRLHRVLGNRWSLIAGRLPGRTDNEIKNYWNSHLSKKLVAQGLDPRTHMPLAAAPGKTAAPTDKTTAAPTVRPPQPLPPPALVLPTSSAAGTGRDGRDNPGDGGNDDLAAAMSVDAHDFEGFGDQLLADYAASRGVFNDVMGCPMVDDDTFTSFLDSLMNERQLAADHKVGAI

B1: 3xAC probe (AC box of TaNRL1 promoter) (dsDNA)
DNA 1: AGTCCACCTAACGCCACCTAACGCCACCTAACGCTGTT
DNA 2: AACAGCGTTAGGTGGCGTTAGGTGGCGTTAGGTGGACT
On to B1, for which, in the series with TaMYB5 (GST-TaMYB5) [1], the binding result was “binds”.

B2: mutant 3xAC probe (dsDNA)
DNA 1: AGTCCAAATATTGCCAAATATTGCCAAATATTGCTGTT
DNA 2: AACAGCAATATTTGGCAATATTTGGCAATATTTGGACT
As to B2, the binding result with TaMYB5 (GST-TaMYB5) [2] is given as “no binding”.
